This test addresses cav1_human CAV1 (UniProt Q03135).

One substance from IntAct's records for PubMed 20956295 can be followed below.

UniProt Q03135, sequence (Q03135 whole entry): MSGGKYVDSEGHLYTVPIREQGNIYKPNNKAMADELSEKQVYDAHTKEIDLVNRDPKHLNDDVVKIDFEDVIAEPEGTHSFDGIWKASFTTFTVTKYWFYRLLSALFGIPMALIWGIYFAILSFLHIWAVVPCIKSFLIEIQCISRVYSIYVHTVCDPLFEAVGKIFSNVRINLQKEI

With “Microtubule-associated protein 1 light chain 3 beta (Homo sapiens) (from UniProt Q9GZQ8) Y113A”, the “effect of a mutation on the interaction” value is given as “disrupting interaction”.
